Reference: article PMC5842376

Target: ISCU(M108I) (human) (UniProt Q9H1K1)
Experiment: ITC

human cysteine desulfurase complex (NIA)2, [NFS1]2:[ISD11]2:[Acp]2 (from UniProt Q9HD34 1-91; P0A6A8 1-78)
Kd: 2600 nM
